According to patent US20250262210A1 (TRUSTEES OF COLUMBIA UNIVERSITY IN THE CITY OF NEW YORK, published 2025):

How the values were obtained:
Experiment in all cases: IP/MS, LZTR1 R810W-FLAG, U87
SREBF2 = target: T1, SREBF2 (human, UniProt Q12772 1-1141, limits assumed)
T1 sequence (looked up): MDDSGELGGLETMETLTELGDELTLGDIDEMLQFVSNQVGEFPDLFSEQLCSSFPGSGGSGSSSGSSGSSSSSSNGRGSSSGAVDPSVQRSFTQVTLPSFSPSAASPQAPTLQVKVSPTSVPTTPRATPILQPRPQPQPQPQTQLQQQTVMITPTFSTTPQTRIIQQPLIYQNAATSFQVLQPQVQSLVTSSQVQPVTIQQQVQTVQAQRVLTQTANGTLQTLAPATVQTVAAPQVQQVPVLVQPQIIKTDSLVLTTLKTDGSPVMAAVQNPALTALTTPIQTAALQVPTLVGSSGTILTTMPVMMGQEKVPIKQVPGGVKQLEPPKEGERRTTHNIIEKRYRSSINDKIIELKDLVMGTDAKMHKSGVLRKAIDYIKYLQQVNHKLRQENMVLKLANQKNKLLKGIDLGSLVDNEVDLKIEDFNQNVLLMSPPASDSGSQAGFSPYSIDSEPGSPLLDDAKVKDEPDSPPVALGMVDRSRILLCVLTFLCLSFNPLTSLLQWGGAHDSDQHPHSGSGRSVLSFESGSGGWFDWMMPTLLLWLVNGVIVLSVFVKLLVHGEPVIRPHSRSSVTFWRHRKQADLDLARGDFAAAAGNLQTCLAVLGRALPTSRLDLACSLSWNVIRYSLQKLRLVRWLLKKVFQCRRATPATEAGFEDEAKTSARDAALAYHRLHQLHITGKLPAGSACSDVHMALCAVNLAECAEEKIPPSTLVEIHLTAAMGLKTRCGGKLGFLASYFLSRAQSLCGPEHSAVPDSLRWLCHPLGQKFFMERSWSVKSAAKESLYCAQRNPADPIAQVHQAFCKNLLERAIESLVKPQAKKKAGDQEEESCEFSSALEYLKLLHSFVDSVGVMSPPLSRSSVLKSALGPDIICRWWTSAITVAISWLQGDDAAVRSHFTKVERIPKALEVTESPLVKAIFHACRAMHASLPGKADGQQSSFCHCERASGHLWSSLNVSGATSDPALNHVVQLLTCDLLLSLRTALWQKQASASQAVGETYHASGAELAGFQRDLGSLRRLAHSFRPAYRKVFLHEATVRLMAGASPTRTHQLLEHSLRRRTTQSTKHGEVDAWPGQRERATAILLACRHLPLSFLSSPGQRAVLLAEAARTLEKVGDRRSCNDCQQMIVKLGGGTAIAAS
Summary of the method: (§1)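 Gel slices were reduced with 5 mM DTT, alkylated with 11 mM IAA and digested overnight at 37° C. with trypsin. Peptides were analysed on an Orbitrap Fusion Tribrid by LC-MS/MS.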

TRRAP = TRRAP (human, UniProt Q9Y4A5 2-3859, limits assumed)
Summary of the method: as §1

KIAA1217 = KIAA1217 (human, UniProt Q5T5P2 1-1943, limits assumed)
Summary of the method: as §1

KNL1 = KNL1 (human, UniProt Q8NG31 1-2342, limits assumed)
Summary of the method: as §1

KDM5C = KDM5C (human, UniProt P41229 1-1560, limits assumed)
Summary of the method: as §1

VPS13A = VPS13A (human, UniProt Q96RL7 1-3174, limits assumed)
Summary of the method: as §1

Measured: binding result

Chain of VPS13A (Q96RL7 whole entry): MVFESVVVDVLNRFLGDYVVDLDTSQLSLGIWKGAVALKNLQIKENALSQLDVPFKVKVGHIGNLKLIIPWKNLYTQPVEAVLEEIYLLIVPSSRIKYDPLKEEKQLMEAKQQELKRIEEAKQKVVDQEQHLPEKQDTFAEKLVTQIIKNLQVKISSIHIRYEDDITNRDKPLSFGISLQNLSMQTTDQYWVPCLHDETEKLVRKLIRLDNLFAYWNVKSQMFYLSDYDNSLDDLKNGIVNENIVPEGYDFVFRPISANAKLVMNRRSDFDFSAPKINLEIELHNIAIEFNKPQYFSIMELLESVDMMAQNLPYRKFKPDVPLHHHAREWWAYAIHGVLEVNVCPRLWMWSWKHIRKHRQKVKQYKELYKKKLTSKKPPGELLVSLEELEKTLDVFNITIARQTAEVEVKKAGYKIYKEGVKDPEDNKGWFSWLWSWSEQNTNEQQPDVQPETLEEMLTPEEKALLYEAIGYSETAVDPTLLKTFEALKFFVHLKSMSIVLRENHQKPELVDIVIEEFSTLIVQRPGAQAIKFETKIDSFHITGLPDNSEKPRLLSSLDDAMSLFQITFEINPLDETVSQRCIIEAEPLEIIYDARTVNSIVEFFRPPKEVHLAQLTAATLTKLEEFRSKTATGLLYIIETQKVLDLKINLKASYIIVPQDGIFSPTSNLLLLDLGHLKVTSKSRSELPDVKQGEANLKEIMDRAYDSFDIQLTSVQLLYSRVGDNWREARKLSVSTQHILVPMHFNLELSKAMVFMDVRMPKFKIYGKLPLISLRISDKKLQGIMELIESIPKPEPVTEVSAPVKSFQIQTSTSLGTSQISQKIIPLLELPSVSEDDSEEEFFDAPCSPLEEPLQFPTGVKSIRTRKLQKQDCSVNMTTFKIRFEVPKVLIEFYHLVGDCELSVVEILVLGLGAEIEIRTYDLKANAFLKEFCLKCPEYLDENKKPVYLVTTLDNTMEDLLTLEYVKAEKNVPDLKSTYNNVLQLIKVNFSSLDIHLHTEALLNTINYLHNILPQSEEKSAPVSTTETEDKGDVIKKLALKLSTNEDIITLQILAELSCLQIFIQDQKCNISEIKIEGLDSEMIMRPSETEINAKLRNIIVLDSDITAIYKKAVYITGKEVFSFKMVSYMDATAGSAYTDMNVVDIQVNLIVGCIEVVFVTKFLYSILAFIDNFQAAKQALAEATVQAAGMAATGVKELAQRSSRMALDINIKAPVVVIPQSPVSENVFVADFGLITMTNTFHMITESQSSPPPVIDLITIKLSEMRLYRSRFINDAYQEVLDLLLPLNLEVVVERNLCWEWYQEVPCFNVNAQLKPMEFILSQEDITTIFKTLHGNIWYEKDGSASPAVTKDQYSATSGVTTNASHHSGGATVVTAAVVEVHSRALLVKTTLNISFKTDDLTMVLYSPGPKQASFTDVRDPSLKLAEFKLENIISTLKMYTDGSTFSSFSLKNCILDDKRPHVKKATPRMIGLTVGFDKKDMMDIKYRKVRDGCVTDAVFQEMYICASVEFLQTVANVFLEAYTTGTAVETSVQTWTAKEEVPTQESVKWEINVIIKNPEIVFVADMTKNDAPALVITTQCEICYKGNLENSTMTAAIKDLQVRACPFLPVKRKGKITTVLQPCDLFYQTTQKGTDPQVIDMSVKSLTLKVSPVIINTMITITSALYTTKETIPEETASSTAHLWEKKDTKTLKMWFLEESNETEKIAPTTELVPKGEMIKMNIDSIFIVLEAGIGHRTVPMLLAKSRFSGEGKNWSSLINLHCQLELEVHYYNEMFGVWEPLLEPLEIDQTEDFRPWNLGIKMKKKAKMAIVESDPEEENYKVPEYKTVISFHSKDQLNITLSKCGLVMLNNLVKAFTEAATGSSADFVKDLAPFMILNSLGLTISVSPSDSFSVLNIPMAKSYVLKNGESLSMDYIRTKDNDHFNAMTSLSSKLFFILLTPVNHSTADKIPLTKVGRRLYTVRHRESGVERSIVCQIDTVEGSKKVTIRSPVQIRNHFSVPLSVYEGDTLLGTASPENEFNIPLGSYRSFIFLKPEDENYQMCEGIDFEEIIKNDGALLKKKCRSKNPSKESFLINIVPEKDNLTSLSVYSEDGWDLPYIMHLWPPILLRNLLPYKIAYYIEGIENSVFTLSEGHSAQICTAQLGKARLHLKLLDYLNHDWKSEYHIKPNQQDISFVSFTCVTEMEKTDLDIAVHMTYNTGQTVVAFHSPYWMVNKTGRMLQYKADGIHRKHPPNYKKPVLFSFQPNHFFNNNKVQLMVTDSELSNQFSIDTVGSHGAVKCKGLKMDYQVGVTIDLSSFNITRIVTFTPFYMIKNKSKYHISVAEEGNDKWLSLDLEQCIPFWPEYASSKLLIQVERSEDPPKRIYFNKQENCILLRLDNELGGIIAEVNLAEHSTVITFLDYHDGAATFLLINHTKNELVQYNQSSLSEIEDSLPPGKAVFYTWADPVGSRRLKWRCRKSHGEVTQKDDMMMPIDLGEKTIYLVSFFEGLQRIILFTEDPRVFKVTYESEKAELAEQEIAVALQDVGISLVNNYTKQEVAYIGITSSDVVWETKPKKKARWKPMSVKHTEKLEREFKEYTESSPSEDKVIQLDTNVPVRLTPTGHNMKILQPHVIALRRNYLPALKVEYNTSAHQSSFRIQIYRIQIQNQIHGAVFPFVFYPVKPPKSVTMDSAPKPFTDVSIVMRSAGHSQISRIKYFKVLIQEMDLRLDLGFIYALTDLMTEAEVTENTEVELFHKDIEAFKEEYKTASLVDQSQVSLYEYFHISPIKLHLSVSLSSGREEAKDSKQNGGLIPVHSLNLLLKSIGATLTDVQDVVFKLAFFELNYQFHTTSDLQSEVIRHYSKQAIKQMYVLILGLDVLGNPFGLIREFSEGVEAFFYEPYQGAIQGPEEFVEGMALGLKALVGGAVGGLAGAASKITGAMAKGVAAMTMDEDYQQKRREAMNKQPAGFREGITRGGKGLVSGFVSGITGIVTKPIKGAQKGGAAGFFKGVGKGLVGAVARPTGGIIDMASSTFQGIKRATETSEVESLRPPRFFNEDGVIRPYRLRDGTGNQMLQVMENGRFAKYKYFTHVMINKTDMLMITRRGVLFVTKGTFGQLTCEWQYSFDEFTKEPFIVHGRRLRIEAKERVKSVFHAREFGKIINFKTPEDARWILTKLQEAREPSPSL
Chain of KDM5C (P41229 whole entry): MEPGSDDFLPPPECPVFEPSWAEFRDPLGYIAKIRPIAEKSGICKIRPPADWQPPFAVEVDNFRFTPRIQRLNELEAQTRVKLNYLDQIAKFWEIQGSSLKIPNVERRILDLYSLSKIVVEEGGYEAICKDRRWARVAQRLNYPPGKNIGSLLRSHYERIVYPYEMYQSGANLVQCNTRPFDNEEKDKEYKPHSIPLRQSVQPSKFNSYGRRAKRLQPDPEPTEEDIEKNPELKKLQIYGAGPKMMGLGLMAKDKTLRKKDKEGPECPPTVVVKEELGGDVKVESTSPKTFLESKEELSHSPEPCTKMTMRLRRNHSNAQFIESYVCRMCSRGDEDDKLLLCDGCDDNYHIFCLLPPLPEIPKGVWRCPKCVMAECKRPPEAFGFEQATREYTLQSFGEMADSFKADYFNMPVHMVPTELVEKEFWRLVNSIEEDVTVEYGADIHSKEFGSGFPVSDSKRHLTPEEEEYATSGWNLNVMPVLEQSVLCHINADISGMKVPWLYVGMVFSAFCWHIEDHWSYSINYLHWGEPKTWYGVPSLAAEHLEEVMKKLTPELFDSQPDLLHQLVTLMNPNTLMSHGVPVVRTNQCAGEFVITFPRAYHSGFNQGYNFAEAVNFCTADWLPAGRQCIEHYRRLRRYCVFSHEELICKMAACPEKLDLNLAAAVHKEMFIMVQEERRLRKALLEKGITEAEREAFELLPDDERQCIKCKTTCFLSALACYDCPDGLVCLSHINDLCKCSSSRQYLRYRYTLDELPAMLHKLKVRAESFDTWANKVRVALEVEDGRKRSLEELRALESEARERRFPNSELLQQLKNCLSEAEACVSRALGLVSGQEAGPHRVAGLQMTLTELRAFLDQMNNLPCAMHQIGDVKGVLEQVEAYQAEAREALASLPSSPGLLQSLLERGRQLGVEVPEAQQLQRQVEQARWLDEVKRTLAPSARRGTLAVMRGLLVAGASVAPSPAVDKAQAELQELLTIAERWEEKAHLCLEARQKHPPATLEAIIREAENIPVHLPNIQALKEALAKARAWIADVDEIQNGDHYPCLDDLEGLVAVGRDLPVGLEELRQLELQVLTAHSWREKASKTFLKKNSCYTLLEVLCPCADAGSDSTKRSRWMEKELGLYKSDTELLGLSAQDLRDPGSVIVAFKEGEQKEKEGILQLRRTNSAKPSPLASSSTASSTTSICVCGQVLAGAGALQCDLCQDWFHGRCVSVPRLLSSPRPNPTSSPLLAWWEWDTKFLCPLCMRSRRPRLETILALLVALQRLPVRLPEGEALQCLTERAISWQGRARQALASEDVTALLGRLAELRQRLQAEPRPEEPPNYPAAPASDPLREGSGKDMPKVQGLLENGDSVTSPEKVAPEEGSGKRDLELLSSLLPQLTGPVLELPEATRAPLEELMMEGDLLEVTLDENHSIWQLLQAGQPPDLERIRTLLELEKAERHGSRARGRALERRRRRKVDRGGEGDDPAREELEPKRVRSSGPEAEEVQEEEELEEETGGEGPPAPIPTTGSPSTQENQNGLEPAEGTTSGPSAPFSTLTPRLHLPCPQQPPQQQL

B1: LZTR1 R810W-FLAG (other, human, UniProt Q8N653 1-840, looked up)
chain: MAGPGSTGGQIGAAALAGGARSKVAPSVDFDHSCSDSVEYLTLNFGPFETVHRWRRLPPCDEFVGARRSKHTVVAYKDAIYVFGGDNGKTMLNDLLRFDVKDCSWCRAFTTGTPPAPRYHHSAVVYGSSMFVFGGYTGDIYSNSNLKNKNDLFEYKFATGQWTEWKIEGRLPVARSAHGATVYSDKLWIFAGYDGNARLNDMWTIGLQDRELTCWEEVAQSGEIPPSCCNFPVAVCRDKMFVFSGQSGAKITNNLFQFEFKDKTWTRIPTEHLLRGSPPPPQRRYGHTMVAFDRHLYVFGGAADNTLPNELHCYDVDFQTWEVVQPSSDSEVGGAEVPERACASEEVPTLTYEERVGFKKSRDVFGLDFGTTSAKQPTQPASELPSGRLFHAAAVISDAMYIFGGTVDNNIRSGEMYRFQFSCYPKCTLHEDYGRLWESRQFCDVEFVLGEKEECVQGHVAIVTARSRWLRRKITQARERLAQKLEQEAAPVPREAPGVAAGGARPPLLHVAIREAEARPFEVLMQFLYTDKIKYPRKGHVEDVLLIMDVYKLALSFQLCRLEQLCRQYIEASVDLQNVLVVCESAARLQLSQLKEHCLNFVVKESHFNQVIMMKEFERLSSPLIVEIVRRKQQPPPRTPLDQPVDIGTSLIQDMKAYLEGAGAEFCDITLLLDGHPRPAHKAILAARSSYFEAMFRSFMPEDGQVNISIGEMVPSRQAFESMLRYIYYGEVNMPPEDSLYLFAAPYYYGFYNNRLQAYCKQNLEMNVTVQNVLQILEAADKTQALDMKRHCLHIIVHQFTKVSKLPTLWSLSQQLLLDIIDSLASHISDKQCAELGADI
notes: Stably expressed in U87 cells by lentivirus; also called LZTR1-FLAG-R810W; LZTR1 RW; not shown: FLAG tag
binds: all assays above
